B1: Indoleamine 2,3-dioxygenase 1 (Mus musculus), P28776 (parent)
chain: MALSKISPTEGSRRILEDHHIDEDVGFALPHPLVELPDAYSPWVLVARNLPVLIENGQLREEVEKLPTLSTDGLRGHRLQRLAHLALGYITMAYVWNRGDDDVRKVLPRNIAVPYCELSEKLGLPPILSYADCVLANWKKKDPNGPMTYENMDILFSFPGGDCDKGFFLVSLLVEIAASPAIKAIPTVSSAVERQDLKALEKALHDIATSLEKAKEIFKRMRDFVDPDTFFHVLRIYLSGWKCSSKLPEGLLYEGVWDTPKMFSGGSAGQSSIFQSLDVLLGIKHEAGKESPAEFLQEMREYMPPAHRNFLFFLESAPPVREFVISRHNEDLTKAYNECVNGLVSVRKFHLAIVDTYIMKPSKKKPTDGDKSEEPSNVESRGTGGTNPMTFLRSVKDTTEKALLSWP

Variants of: B1
Details: with socs3_mouse Socs3, O35718
Chain of socs3_mouse Socs3, O35718 (O35718 whole entry): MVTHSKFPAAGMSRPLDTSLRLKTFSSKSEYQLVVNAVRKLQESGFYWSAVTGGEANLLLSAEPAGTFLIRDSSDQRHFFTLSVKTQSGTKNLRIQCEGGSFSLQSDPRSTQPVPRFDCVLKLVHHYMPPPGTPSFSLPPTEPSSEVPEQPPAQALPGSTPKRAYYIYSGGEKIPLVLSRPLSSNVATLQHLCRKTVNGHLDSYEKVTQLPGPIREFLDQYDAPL
Y115F;Y253F was tested, and the “effect of a mutation on the interaction” value was “disrupting interaction”.

— IntAct's records for PubMed 19088199
